In the RNAGym collection of RNA variant scans (doi:10.1073/pnas.2313332121):

B1: TPR t1 (parent)
chain: GACCAAUCUGCCCUCAGAGCUCGAGAACAUCUUCGGAUGCAGAGGAGGCAGGCUUCGGUGGCGCGAUAGCGCCAACGUCCUCAACCUCCAAUGCAUCCCACCACAUGAUGAUGCCUGAAGAGCCUUGGUUUUUUG

Variants of: B1
Test: polymerase ribozyme fitness, log enrichment relative to wild type (log ratio); higher = more active; in vitro selection for triplet polymerase activity
Summary of the method: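 Mutant libraries were PCR-built and transcribed for each subunit of a heterodimeric triplet polymerase ribozyme and selected for one round in triplicate at −7 °C, frozen, before gel excision of extended constructs and streptavidin-bead capture. Input and output libraries were Illumina-sequenced, keeping genotypes with ≥10 input reads and ≥1 read per output. Fitness is a logarithmic ratio of genotype to wild-type enrichment, in base 2, using inverse-variance-weighted replicate averages.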

Variant | polymerase ribozyme fitness (log ratio)
C13A C88G A105G G120U | -4.2
C13U A18G C49G G77U | -4.43
C13G C49A G60U | -2.3
C13G G48C G63U A105C C124A | -4.22
C13A C73G | -3.11
C13G U14A C64U C86A | -3.76
C12U G47U C86G G122A | 0.433
C13G G48C U106C U112G G122A G135A | -2.17
C12U G17U | -0.854
C13U C70G | -1.68
C12U C80U C89U C99U G120A | -2.97
C13U C62U | -0.0202
C13G G35C G47A C80U A105C G107U G117A | -7.66
C13U C20U G61U C114A | 0.523
C12U U106A | 0.462
C13G C73U A91C | -2.89
C13G A16U C82A C89G | -4.33
C13G A66U C114A | -4.3
C13A U109A G110C G128U | -3.64
C13G C22U G39U C53G | -5.48
C13A A50U | -3.1
C12U U38G C72G | -0.666
C13G G47U C114A | -4.31
C13U G17U G63U U78C | -3.99

Variant | polymerase ribozyme fitness (log ratio)
C13G G58C U92C | -3.7
C13U C123A | 1.1
C12U C101U | -0.102
C13A A83U | -2.07
C13U G19A A41U G44U G69U | -2.81
C12U G52U C53G U78G | -0.0807
C13G A16U C49A G63A | -3.65
C12U G60U G69A C86U C101A U112C | -6.42
C13A C49U G51U G69U A111U G120A | -6.99
C13U C20U C72A C76A | -2.68
C13A C28G C34A A84C G110C | -1.53
C12U U87A | 0.248
C13A A121C G128C | -1.87
C13U G39A C70A C104U | -1.43
C13U A27G G47A C64U | -3.03
C13G U112G | -0.767
C13U A16U C56U U129G | -0.207
C12U G35A G42U U112C | -5.14
C13U A41G C49A G52U | -1.15
C12U U116G | -0.0621
C13G C53G G63C | -2.03
C13U C56G G58C | -0.174
C12U G117A | 0.626
C13U A18G G52C | -3.22

Variant | polymerase ribozyme fitness (log ratio)
C13G C20A C49U C64U U96G | -4.56
C13G U32C U78C | -2.51
C13U A26U G69C | -4.28
C13A G45A G113U G117C | -6.5
C12U U14A G110U G113A U130C | -4.17
C13U C72U U129G | -0.856
C13G C85G C86A | -3.16
C13G C15U G120A | -2.44
C13A C40U C88U C101A U112A | -2.49
C13G A41C | -3.32
C13G C53U | -1.87
C13U A29U C102U | -3.96
C12U U33G G69U C99A C115A U125C | -6.8
C13A A90U | -3.48
C13A A100U U131G | -2.21
C13A G71U A74G U109A | -6.36
C12U G61U A105G | -1.62
C13G C28G U96A | -4.5
C13A C53U | -2
C13U C20G C64A C73U C104A G110U A121U | -7.37
C13G A37G | -2.1
C13G A37U | -1.57
C13A G51A | -4.85
C13A A27C G36A | -4.52

Variant | polymerase ribozyme fitness (log ratio)
C12U G63C C82U A103C | -6.59
C12U G61C C94U | -0.805
C13G G17C A75U U87G U96A C104U | -5.5
C13G C40A U133A | -2.76
C13U C20U U106A G120A | -1.72
C13G A37U G48A C49U C85U G93C G120U | -1.53
C12U U54A C64U | 0.381
C13G C72U A119U | 0.275
C12U U14C C72G C82G U112A | 0.602
C13U C70G A83C U112C | -1.45
C13U C20U G44U G47U | -3.8
C13A C89A | -3.37
C13U A41C G52U G60C G120A U126G | -1.71
C13A A18G | -3.1
C13G C62U U125A | -1.62
C13U G17A C123A | 0.664
C13A G69U A74U U87A A100C U109A | -5.82
C12U G52A G117C | -0.882
C13G G52A C72G C85A | -4.46
C13U C115A | -0.378
C13A C56A | -1.3
C13A C56G | -2.27
C13A G39U U59G G69C | -3.36
C13U G39U G44U | -1.24

Variant | polymerase ribozyme fitness (log ratio)
C13G G63C U112C G127C U129A | -2.13
C13U C72U A74C | 0.529
C13A A24G A29G C94A | -4.2
C13G C53G G93C C101A | -3.63
C12U G71A A111C C115A U131G U133A | -0.622
C13U A75G C76G U133A | -0.431
C12U G61U | 0.129
C13U A46C | 0.0656
C13G G17C U112G U116G | -4.51
C12U C124A | 1.8
C13A C101U | -2.13
C13U C20G | -4.55
C13A G36A G52U C97U A111C | -2.68
C13A C70G U112A C123U | -4
C13A G61A | -1.81
C13A C88U | -2.04
C13A G19C G69U G110U U112C | -5.05
C13G C94A C101G C123G | -1.76
C13G G61A | -1.99
C13G G61C | -2.94
C12U G44U | -0.985
C13A A50U G71U | -2.57
C12U G63A G113A | -1.59
C13U C70A A121G | 0.554

Variant | polymerase ribozyme fitness (log ratio)
C13G G63C | -1.92
C13G G63A | -2.24
C13G G63U | -2.53
C13U C49U U55G U92A | -4.11
C13G A18G | -5.42
C13G C40G | -0.654
C12U G44U C72G G127A G128C | -4.51
C13G C40A C123U | -0.0334
C13U C85U | -1.48
C13G G42A C85U C124G | -1.82
C12U U21A G35A | -4.8
C12U G19U | -2.49
C13U G35C G48C C73A A74G C104U | -4.6
C13U A50G C70U C79U C86G G117A | -2.99
C13U A29G A83G | -1.83
C13G G71A | -2.22
C13G G71C | -3.5
C13A A27U A43U G57C | -4.33
C13U A29U C56A G65A G77A | -6.34
C13G G71C U125A G128C | -3.83
C13U A50G G52A G69A G77U | -2.68
C13U C64U A74U C82G | -1.47
C13G A90C A95G | -3.14
C13A C56U C80A | -2.82

Variant | polymerase ribozyme fitness (log ratio)
C13U C73G C82A U87C C101A G110C G127A | -6.6
C13G C56U | -1.58
C13U C22G A41U U78G U81C G122A | -4.41
C13G C15G A26U C94A C114U | -6.55
C13U C49G A50U G58A A95G C114G | -5.63
C13G G52C C86U A118G | -5.59
C13A C49A G71A | -1.76
C13A A16U C94U A111U C123G U130C | -6.28
C12U G57A | -0.879
C13G C49U G51A U125A | -4.36
C13U C82G C99U | -3.96
C13U G35A G45A U87G | -4.53
C13A A74G C86A C101G | -4.34
C12U G42A A95U | -1.64
C13G C85U C88A C102A A105G C124U | -6.67
C13G G51C G69U U78G | -2.43
C12U G17C C49U C82G C94U C99G C123A | -7.59
C12U G110U | -0.322
C13U C80U A84C C124U | 1.02
C13G C79U | -2.23
C13G C22G C72G C94U C99A G120C | -6.57
C13G C15U | -2.51
C13G C15A | -2.5
